This note sets out measurements from patent US11702475B2, “Cysteine engineered fibronectin type III domain binding molecules” (Janssen Biotech, Inc., priority 2013, dated 2023).

Positions count from the first letter of the chain named. Numbers in names are those of the source.

Series [1] can be described thus: Thermal stability of cysteine-NEM conjugates by DSC. The following applies: for First Scan Tm: DSC 25-100 °C, 1 °C per minute; for Second Scan Tm: second identical scan. The class given is physicochemical. The method, then: The thermal stability of cysteine-NEM conjugates was assessed by differential scanning calorimetry (DSC). The only the conjugates tested were those determined to express at high levels, conjugate efficiently, and retain EGFR binding. Additionally, cysteine variants within the BC and FG loops were excluded. Stability data was generated by heating a 400 μL aliquot of the variant from 25° C. to 100° C. at a scan rate of 1° C. per minute in a VP-DSC instrument (MicroCal). A second identical scan was completed on the sample in order to assess the reversibility of thermal folding/unfolding. Data was fitted to a 2-state unfolding model in order to calculate the melting temperature (Table 10).
Background: In DSC, transitions show as peaks or steps in heat flow.

In series [2] the test system is EGFR-overexpressing human tumor cell line H1573. In words: Cytotoxicity assay in H1573 cells. The note with it: cysteine variants conjugated to VC-MMAF, Cell TiterGlo at 70 hours, read-out: IC50. The class given is cell-based. The procedure: Cell killing was assessed by measuring viability of the EGFR-overexpressing human tumor cell line H1573 following exposure to the cysteine variant-cytotoxin conjugates. Cells were plated in black-well, clear bottomed, tissue culture-treated plates (Falcon 353219) at 7000/well in 100 μL/well of phenol red free RPMI media (Gibco 11835-030) with 5% fetal bovine serum (Gibco). Cells were allowed to attach overnight at 37° C. in a humidified 5% CO2 atmosphere. Medium was aspirated from 96-well plate and cells were treated with 50 uL of fresh media and 50 uL of 2× inhibitor made up in fresh media. Cell viability was determined by an endpoint assay with Cell TiterGlo (Promega) at 70 hours. IC50 values were determined by fitting data to the equation for a sigmoidal dose response with variable slope using GraphPad Prism 5 (GraphPad Software). Table 11 reports IC50 values obtained from analysis of the CellTiter Glo data.
Conjugates consisting of ECB147 cysteine variants, 83v2-cys, or Tencon-cys linked to a cytotoxic tubulin inhibitor from the auristatin family (FIG. 2) were tested for target-dependent cytotoxicity in cancer cells. The inhibitor was linked to the cysteine-containing protein via a non-cleavable PEG4 linker or an enzyme-cleavable valine-citrulline or valine-lysine linker. Cell killing was assessed by measuring viability of the EGFR-overexpressing human tumor cell lines H1573 and A431 as well as the EGFR-negative tumor cell line MDA-MB-435 following exposure to the protein-cytotoxin conjugates using the procedure described in Example 4.
For orientation: In ATP-based viability assays light output follows the ATP content of the culture.

A short description of series [3]: Analytical size exclusion chromatography (percent monomer). The class given is physicochemical. The following applies: NEM-conjugated cysteine variants; SEC, Abs280 monomer region 5.5-6 minutes vs oligomer region 4-5.3 minutes. The method, then: Size exclusion chromatography was used to determine the aggregation state of the FN3 domains binding EGFR. Aliquots (10 μL) of each purified FN3 domain were injected onto a Superdex 75 5/150 column (GE Healthcare) at a flow rate of 0.3 mL/min in a mobile phase of PBS pH 7.4. Elution from the column was monitored by absorbance at 280 nm.
The percent monomer for each protein was determined by integrating the Abs280 signal and comparing the peak in the monomer region (5.5-6 minutes) to the peaks in the oligomer region (4-5.3 minutes).

B1: L32C: cysteine variant of P54AR4-83v2; NEM and VC-MMAF conjugates (conjugate)
chain: LPAPKNLVVSEVTEDSARLSWDDPWAFYESFCIQYQESEKVGEAIVLTVPGSERSYDLTGLKPGTEYTVSIYGVHNVYKDTNMRGLPLSAIFTT
modifications: left off: small tags and cut ends
notes: cysteine variant of P54AR4-83v2; NEM and VC-MMAF conjugates
As for B1, in series [1], the “First Scan Tm” value worked out at 71 °C and the “Second Scan Tm” value was found to be 70 °C. For the same molecule, in series [2], the IC50 (commonly the point on the concentration scale where inhibition reaches its midpoint) amounted to 2.92 nM. In series [3], this molecule came in with a Percent monomer of 100%.

B2: E11C: cysteine variant of P54AR4-83v2 (SEQ ID NOS: 191 and 229); NEM and VC-MMAF conjugates (conjugate)
chain: MLPAPKNLVVSCVTEDSARLSWDDPWAFYESFLIQYQESEKVGEAIVLTVPGSERSYDLTGLKPGTEYTVSIYGVHNVYKDTNMRGLPLSAIFTT
modifications: NEM or vcMMAF conjugate; EGFR binding FN3 domain
notes: NEM and VC-MMAF conjugates
With B2, in series [1], the “First Scan Tm” value is 71 °C and the “Second Scan Tm” value is 72 °C. In series [2], the 50% inhibitory concentration (IC50) turned out to be 0.94 nM. In series [3], this molecule displayed a Percent monomer of 100%.

B3: Q34C: cysteine variant of P54AR4-83v2 (SEQ ID NOS: 197 and 235); NEM and VC-MMAF conjugates (conjugate)
chain: B2 chain with C12E, Q35C
modifications: NEM or vcMMAF conjugate; EGFR binding FN3 domain
notes: NEM and VC-MMAF conjugates
On to B3, for which, in series [1], the “First Scan Tm” value worked out at 75 °C and the “Second Scan Tm” value came to 74 °C. Besides, the IC50 in series [2] amounted to 0.74 nM. In series [3], this molecule came in with a Percent monomer of 97%.

B4: E14C: cysteine variant of P54AR4-83v2 (SEQ ID NOS: 192 and 230); NEM and VC-MMAF conjugates (conjugate)
chain: B2 chain with C12E, E15C
modifications: NEM or vcMMAF conjugate; EGFR binding FN3 domain
notes: NEM and VC-MMAF conjugates
Turning to B4, in series [1], the “First Scan Tm” value was 70 °C and the “Second Scan Tm” value was 71 °C. For the same molecule, the IC50 in series [2] worked out at 0.34 nM. In series [3], this molecule gave a Percent monomer of 96%.

B5: V41C: cysteine variant of P54AR4-83v2 (SEQ ID NOS: 200 and 238); NEM and VC-MMAF conjugates (conjugate)
chain: B2 chain with C12E, V42C
modifications: NEM or vcMMAF conjugate; EGFR binding FN3 domain
notes: NEM and VC-MMAF conjugates
B5: in series [1], the “First Scan Tm” value came out at 71 °C and the “Second Scan Tm” value came to 71 °C. In addition, the IC50 in series [2] is 1.13 nM. The Percent monomer in series [3] amounted to 98%.

B6: S16C: cysteine variant of P54AR4-83v2 (SEQ ID NOS: 194 and 232); NEM and VC-MMAF conjugates (conjugate)
chain: B2 chain with C12E, S17C
modifications: NEM or vcMMAF conjugate; EGFR binding FN3 domain
notes: NEM and VC-MMAF conjugates
With B6, in series [1], the “First Scan Tm” value amounted to 68 °C and the “Second Scan Tm” value came to 68 °C. For the same molecule, the half-inhibitory concentration (IC50) in series [2] is 0.75 nM. Also, the Percent monomer in series [3] is listed as 75%.

B7: L47C: cysteine variant of P54AR4-83v2 (SEQ ID NOS: 202 and 240); NEM and VC-MMAF conjugates (conjugate)
chain: B2 chain with C12E, L48C
modifications: NEM or vcMMAF conjugate; EGFR binding FN3 domain
notes: NEM and VC-MMAF conjugates
For B7, in series [1], the “First Scan Tm” value turned out to be 67 °C and the “Second Scan Tm” value worked out at 67 °C. Moreover, the IC50 in series [2] is 1.03 nM. Also, the Percent monomer in series [3] worked out at 100%.

B8: S20C: cysteine variant of P54AR4-83v2 (SEQ ID NOS: 195 and 233); NEM and VC-MMAF conjugates (conjugate)
chain: B2 chain with C12E, S21C
modifications: NEM or vcMMAF conjugate; EGFR binding FN3 domain
notes: NEM and VC-MMAF conjugates
As to B8, in series [1], the “First Scan Tm” value was 70 °C and the “Second Scan Tm” value was 70 °C. The half-maximal inhibitory concentration (IC50) in series [2] is 0.36 nM. In series [3], this molecule yielded a Percent monomer of 94%.

B9: D15C: cysteine variant of P54AR4-83v2 (SEQ ID NOS: 193 and 231); NEM and VC-MMAF conjugates (conjugate)
chain: B2 chain with C12E, D16C
modifications: NEM or vcMMAF conjugate; EGFR binding FN3 domain
notes: NEM and VC-MMAF conjugates
For the molecule B9, in series [1], the “First Scan Tm” value worked out at 73 °C and the “Second Scan Tm” value came to 73 °C. Besides, in series [2], the IC50 was found to be 0.33 nM. The molecule further yielded a Percent monomer in series [3] of 97%.

B10: R54C: cysteine variant of P54AR4-83v2 (SEQ ID NOS: 205 and 243); NEM and VC-MMAF conjugates (conjugate)
chain: B2 chain with C12E, R55C
modifications: NEM or vcMMAF conjugate; EGFR binding FN3 domain
notes: NEM and VC-MMAF conjugates
B10: in series [1], the “First Scan Tm” value was determined as 65 °C and the “Second Scan Tm” value stood at 65 °C. In addition, the IC50 in series [2] was found to be 0.37 nM. Moreover, the Percent monomer in series [3] is given as 96%.

B11: T48C: cysteine variant of P54AR4-83v2 (SEQ ID NOS: 203 and 241); NEM and VC-MMAF conjugates (conjugate)
chain: B2 chain with C12E, T49C
modifications: NEM or vcMMAF conjugate; EGFR binding FN3 domain
notes: NEM and VC-MMAF conjugates
With B11, in series [1], the “First Scan Tm” value was 72 °C and the “Second Scan Tm” value stood at 72 °C. Also, the IC50 in series [2] came out at 0.59 nM. This molecule yielded a Percent monomer in series [3] of 90%.

B12: S38C: cysteine variant of P54AR4-83v2 (SEQ ID NOS: 198 and 236); NEM and VC-MMAF conjugates (conjugate)
chain: B2 chain with C12E, S39C
modifications: NEM or vcMMAF conjugate; EGFR binding FN3 domain
notes: NEM and VC-MMAF conjugates
As to B12, in series [1], the “First Scan Tm” value was found to be 65 °C and the “Second Scan Tm” value amounted to 65 °C. Besides, in series [2], the IC50 was 0.76 nM. Besides, the Percent monomer in series [3] is reported as 93%.

B13: I45C: cysteine variant of P54AR4-83v2 (SEQ ID NOS: 201 and 239); NEM and VC-MMAF conjugates (conjugate)
chain: B2 chain with C12E, I46C
modifications: NEM or vcMMAF conjugate; EGFR binding FN3 domain
notes: NEM and VC-MMAF conjugates
Regarding B13, in series [1], the “First Scan Tm” value is 69 °C and the “Second Scan Tm” value is 68 °C. For the same molecule, in series [2], the IC50 stood at 0.63 nM. The Percent monomer in series [3] is given as 97%.

B14: K40C: cysteine variant of P54AR4-83v2 (SEQ ID NOS: 199 and 237); NEM and VC-MMAF conjugates (conjugate)
chain: B2 chain with C12E, K41C
modifications: NEM or vcMMAF conjugate; EGFR binding FN3 domain
notes: NEM and VC-MMAF conjugates
Take B14: in series [1], the “First Scan Tm” value was 70 °C and the “Second Scan Tm” value stood at 70 °C. For the same molecule, in series [2], the IC50 amounted to 0.73 nM. Further, the Percent monomer in series [3] was determined as 97%.

B15: S30C: cysteine variant of P54AR4-83v2 (SEQ ID NOS: 196 and 234); NEM and VC-MMAF conjugates (conjugate)
chain: B2 chain with C12E, S31C
modifications: NEM or vcMMAF conjugate; EGFR binding FN3 domain
notes: NEM and VC-MMAF conjugates
Turning to B15, in series [1], the “First Scan Tm” value stood at 71 °C and the “Second Scan Tm” value was found to be 71 °C. In addition, the IC50 in series [2] is 0.78 nM. Further, in series [3], the Percent monomer was determined as 94%.
